This assay addresses His-p65 fusion protein (UniProt Q04206 1-551). Briefly: pull-down.

His-p65 fusion protein, sequence (Q04206 whole entry, the tested form may be a part): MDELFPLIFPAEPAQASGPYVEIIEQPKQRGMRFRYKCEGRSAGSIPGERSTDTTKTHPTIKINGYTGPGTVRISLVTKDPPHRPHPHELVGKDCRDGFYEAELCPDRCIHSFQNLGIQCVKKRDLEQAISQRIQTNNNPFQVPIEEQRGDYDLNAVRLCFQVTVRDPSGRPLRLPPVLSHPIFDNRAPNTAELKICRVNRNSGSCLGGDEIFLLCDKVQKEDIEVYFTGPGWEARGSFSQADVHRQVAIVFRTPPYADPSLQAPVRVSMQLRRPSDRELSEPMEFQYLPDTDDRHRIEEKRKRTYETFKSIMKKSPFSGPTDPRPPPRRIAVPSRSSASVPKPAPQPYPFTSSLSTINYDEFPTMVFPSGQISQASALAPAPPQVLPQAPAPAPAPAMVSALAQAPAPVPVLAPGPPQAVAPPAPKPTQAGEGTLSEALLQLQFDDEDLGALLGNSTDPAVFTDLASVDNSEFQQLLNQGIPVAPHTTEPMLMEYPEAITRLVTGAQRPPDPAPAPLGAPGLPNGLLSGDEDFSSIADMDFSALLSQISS

B1: GST-RhoE recombinant protein (natural protein, UniProt P61587 1-244, looked up)
chain: MKERRASQKLSSKSIMDPNQNVKCKIVVVGDSQCGKTALLHVFAKDCFPENYVPTVFENYTASFEIDTQRIELSLWDTSGSPYYDNVRPLSYPDSDAVLICFDISRPETLDSVLKKWKGEIQEFCPNTKMLLVGCKSDLRTDVSTLVELSNHRQTPVSYDQGANMAKQIGAATYIECSALQSENSVRDIFHVATLACVNKTNKNVKRNKSQRATKRISHMPSRPELSAVATDLRKDKAKSCTVM
Take B1: the binding result is on record as “binds”.
